Assay results taken from patent publication US20220281976A1 (Alector, published 2022).
Where a chain is given by its changes, count along the chain named.

T1: mouse CD33 Fc fusion protein (mouse, UniProt Q63994 18-240, limits assumed)
T1 construct: also called mCD33-Fc
T1 sequence: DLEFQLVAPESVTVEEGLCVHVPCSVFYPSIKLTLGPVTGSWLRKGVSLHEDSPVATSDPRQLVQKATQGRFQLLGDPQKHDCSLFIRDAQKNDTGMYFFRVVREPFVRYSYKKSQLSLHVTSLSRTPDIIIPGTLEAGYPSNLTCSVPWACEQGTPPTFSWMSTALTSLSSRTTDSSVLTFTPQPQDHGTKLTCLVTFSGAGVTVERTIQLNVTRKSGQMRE

B1: C-79 (antibody, V domains shown)
VH: QVQLVQSGAEVKKPGASVKVSCKASGYTFTSYYIHWVRQAPGQGLEWMGIINPSGGSTSYAQKFQGRVTMTRDTSTSTVYMELSSLRSEDTAVYYCARVSRQQHSMDVWGQGTTVTVSS
VL: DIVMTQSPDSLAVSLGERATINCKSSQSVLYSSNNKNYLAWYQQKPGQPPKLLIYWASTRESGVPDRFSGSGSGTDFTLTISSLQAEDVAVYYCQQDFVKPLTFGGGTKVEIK
notes: human IgG1
B2: C-7 (antibody, V domains shown)
VH: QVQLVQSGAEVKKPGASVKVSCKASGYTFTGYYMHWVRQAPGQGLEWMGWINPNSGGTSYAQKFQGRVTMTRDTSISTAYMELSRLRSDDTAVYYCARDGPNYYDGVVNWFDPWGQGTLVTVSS
VL: DIQMTQSPSTLSASVGDRVTITCRASQSISSWLAWYQQKPGKAPKLLIYDASSLESGVPSRFSGSGSGTEFTLTISSLQPDDFATYYCQQARSYPPTFGGGTKVEIK
notes: human IgG1
B3: C-27 (antibody, V domains shown)
VH: QVQLVQSGAEVKKPGASVKVSCKASGYTFTSYYMHWVRQAPGQGLEWMGVINPSGGSTSYAQKFQGRVTMTRDTSTSTVYMELSSLRSEDTAVYYCARESQYYDVHGMDVWGQGTTVTVSS
VL: DIQMTQSPSSLSASVGDRVTITCRASQSISSYLNWYQQKPGKAPKLLIYAASSLQSGVPSRFSGSGSGTDFTLTISSLQPEDFATYYCQQHYDIPLTFGGGTKVEIK
notes: human IgG1
B4: C-61 (antibody, V domains shown)
VH: B3 VH
VL: EIVLTQSPGTLSLSPGERATLSCRASQSVSSSYLAWYQQKPGQAPRLLIYGASSRATGIPDRFSGSGSGTDFTLTISRLEPEDFAVYYCQQYYGLPLTFGGGTKVEIK
notes: human IgG1
B5: C-72 (antibody, V domains shown)
VH: QVQLVESGGGVVQPGRSLRLSCAASGFTFSSYGMHWVRQAPGKGLEWVAVIWYDGSNKYYADSVKGRFTISRDNSKNTLYLQMNSLRAEDTAVYYCAKEGGTYSDDFDLWGGGTLVTVSS
VL: B3 VL with L11V, S28G, Y32W, N34A, H91A, Y92S, D93S, I94F
notes: human IgG1
B6: C-60 (antibody, V domains shown)
VH: B3 VH
VL: B3 VL with M4L, H91S, Y92V, D93H, I94V, L96I
notes: human IgG1
B7: C-65 (antibody, V domains shown)
VH: B3 VH
VL: B3 VL with H91Q, D93T, I94L, L96P
notes: human IgG1
B8: C-69 (antibody, V domains shown)
VH: EVQLVESGGGLVQPGGSLRLSCAASGFTFSSYWMSWVRQAPGKGLEWVANIKSDGSEKYYVDSVKGRFTISRDNAKNSLYLQMNSLRAEDTAVYYCARAETYQLSSAFDIWGQGTMVTVSS
VL: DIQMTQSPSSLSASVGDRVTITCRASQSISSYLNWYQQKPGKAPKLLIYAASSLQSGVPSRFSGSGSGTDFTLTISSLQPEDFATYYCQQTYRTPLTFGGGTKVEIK
notes: human IgG1
B9: C-6 (antibody, V domains shown)
VH: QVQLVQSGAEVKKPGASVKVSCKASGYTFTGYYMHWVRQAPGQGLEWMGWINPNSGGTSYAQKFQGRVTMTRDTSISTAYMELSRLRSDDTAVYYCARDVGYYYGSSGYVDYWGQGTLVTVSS
VL: DIQMTQSPSSVSASVGDRVTITCRASQGIDSWLAWYQQKPGKAPKLLIYAASSLQSGVPSRFSGSGSGTDFTLTISSLQPEDFATYYCQQASAHPPWTFGGGTKVEIK
notes: human IgG1
B10: C-68 (antibody, V domains shown)
VH: QVQLQESGPGLVKPSQTLSLTCTVSGGSISSGGYYWSWIRQHPGKGLEWIGNIYYSGSTYYNPSLKSRVTISVDTSKNQFSLKLSSVTAADTAVYYCARDLPNSGSPGSDYFDYWGQGTLVTVSS
VL: B4 VL with Y93D, G94N, L95Y, L97P
notes: human IgG1
B11: C-75 (antibody, V domains shown)
VH: EVQLLESGGGLVQPGGSLRLSCAASGFTFSSYAMSWVRQAPGKGLEWVSAISASGGSTYYADSVKGRFTISRDNSKNTLYLQMNSLRAEDTAVYYCARLHMTGTASSGMDVWGQGTTVTVSS
VL: DIVMTQSPDSLAVSLGERATINCKSSQSVLYSSNNKNYLAWYQQKPGQAPRLLIYGASSRATGIPDRFSGSGSGTDFTLTISRLEPEDFAVYYCQQDYSSPLTFGGGTKVEIK
notes: human IgG1
B12: C-76 (antibody, V domains shown)
VH: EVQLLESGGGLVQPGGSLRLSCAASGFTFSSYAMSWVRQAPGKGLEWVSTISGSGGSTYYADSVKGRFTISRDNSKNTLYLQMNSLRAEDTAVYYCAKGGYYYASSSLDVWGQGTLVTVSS
VL: B11 VL with S99N
notes: human IgG1
B13: C-77 (antibody, V domains shown)
VH: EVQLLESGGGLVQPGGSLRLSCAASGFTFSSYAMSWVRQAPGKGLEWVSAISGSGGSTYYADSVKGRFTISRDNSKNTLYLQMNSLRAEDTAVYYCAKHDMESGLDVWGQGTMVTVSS
VL: B11 VL with M4L, S99V
notes: human IgG1

target: T2, human CD33 (human, UniProt P20138 18-364); assay: flow cytometry, human primary macrophages;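 note: binding of CD33 antibodies at 10 µg/ml to human primary macrophages, 1 h on ice, detected with PE-labelled secondary antibody by flow cytometry, reported as MFI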
T2 construct: CD33 on human primary dendritic cells, macrophages, monocytes and T cells and on CHO cells expressing recombinant human CD33; also called Siglec-3; hCD33
T2 sequence (P20138 18-364): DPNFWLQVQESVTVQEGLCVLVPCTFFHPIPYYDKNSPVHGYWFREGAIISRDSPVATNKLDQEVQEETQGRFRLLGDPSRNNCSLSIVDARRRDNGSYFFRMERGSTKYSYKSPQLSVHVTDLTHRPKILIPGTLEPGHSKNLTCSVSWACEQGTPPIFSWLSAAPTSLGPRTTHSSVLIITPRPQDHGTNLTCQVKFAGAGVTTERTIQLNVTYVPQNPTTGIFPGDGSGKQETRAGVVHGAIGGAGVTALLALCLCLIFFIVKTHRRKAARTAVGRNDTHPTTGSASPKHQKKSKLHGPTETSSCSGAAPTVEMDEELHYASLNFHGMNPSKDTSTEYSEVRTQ
Procedure: (§1) Initial characterization of CD33 antibodies involved determining their ability to bind CD33 expressed on a CHO cell line, on human primary monocytes, human primary macrophages, human primary dendritic cells, and on human primary T cells. Cells were harvested, plated at 10⁶/ml in a 96 well plate, and incubated in 100 ul PBS containing 2% FBS, 2 mM EDTA and 10 ug/ml Mab and Fc blocking reagent for 1 hour in ice. Cells were washed twice and incubated in 100 ul PBS containing 2% FBS, 2 mM EDTA and 5 ug/ml PE-conjugated secondary antibody for 30 minutes on ice. Cells were washed twice in cold PBS and analyze by flow cytometry on a BD FACS Canto. Data analysis and calculation of MFI values was performed with FlowJo (TreeStar) software version 10.0.7.

In order of falling “Macrophage MFI” value:
1. B9  871
2. B7  852
3. B4  797
4. B11  778
5. B6  775
6. B10  752
7. B5  657
8. B1  654
9. B8  628
10. B2  626
11. B3  602
12. B13  493
13. B12  455

target: T2, human CD33; assay: flow cytometry, human primary monocytes; set-up: reference not given here;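 note: binding of anti-CD33 antibodies at 10 ug/ml to human primary monocytes, 1 h on ice, detected by PE-labelled secondary antibody, flow cytometry readout as mean fluorescence intensity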

In order of rising “Monocyte MFI” value:
1. B8  80
2. B2  87
3. B3  113
4. B10  115
5. B5  118
6. B4  122
7. B9  131
8. B6  151
9. B7  161
10. B12  654
11. B11  686
12. B13  698
13. B1  815

target: T1, mouse CD33 Fc fusion protein; assay: ForteBio BLI or MSD-SET

B1: no binding (tested: 100 nM).
B2: no binding (tested: 100 nM).
B3: no binding (tested: 100 nM).
B4: no binding (tested: 100 nM).
B5: no binding (tested: 100 nM).
B6: no binding (tested: 100 nM).
B7: no binding (tested: 100 nM).
B8: no binding (tested: 100 nM).
B9: no binding (tested: 100 nM).
B10: no binding (tested: 100 nM).
B11: no binding (tested: 100 nM).
B12: no binding (tested: 100 nM).
B13: no binding (tested: 100 nM).

target: T3, human CD33 Fc fusion protein (human, UniProt P20138 18-259); assay: ForteBio BLI or MSD-SET, IgG, avid;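 note: Anti-CD33 IgG affinity by BLI, IgG captured on AHQ sensors with antigen in solution and a one-to-one kinetic fit, or by MSD solution equilibrium titration with quadratic fit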
T3 construct: also called hCD33-Fc; human CD33/Fc chimera (R&D Systems)
T3 sequence (P20138 18-259 limits assumed): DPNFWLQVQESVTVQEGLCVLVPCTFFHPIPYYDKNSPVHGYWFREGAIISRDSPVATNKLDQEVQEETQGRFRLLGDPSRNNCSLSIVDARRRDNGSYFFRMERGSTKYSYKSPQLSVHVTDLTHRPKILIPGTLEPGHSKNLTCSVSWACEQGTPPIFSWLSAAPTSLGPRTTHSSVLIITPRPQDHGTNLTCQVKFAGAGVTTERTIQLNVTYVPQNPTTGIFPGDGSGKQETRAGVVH

In order of falling Kd:
1. B10  4.61 nM
2. B12  3.01 nM
3. B8  2.94 nM
4. B9  2.83 nM
5. B1  2.28 nM
6. B13  2.15 nM
7. B4  2.06 nM
8. B5  1.77 nM
9. B3  1.67 nM
10. B6  1.66 nM
11. B7  1.62 nM
12. B11  1.04 nM
13. B2  1.01 nM

target: T2, human CD33; assay: cell-based or functional assay

In order of falling “Percent CD33 Surface Expression, DC % CD33” value:
1. B11  88.7%
2. B12  85.5%
3. B13  84.2%
4. B1  83.1%
5. B9  83%
6. B2  66.9%
7. B10  59.1%
8. B5  43.4%
9. B3  37.8%
10. B7  26.9%
11. B6  26.8%
12. B4  22.8%
13. B8  21.7%

In order of rising “Percent CD33 Surface Expression, Monocyte % CD33” value:
1. B8  29.3%
2. B7  31.2%
3. B4  38.3%
4. B3  39.1%
5. B6  41.7%
6. B5  41.8%
7. B10  71.9%
8. B11  85.9%
9. B13  87.6%
10. B9  91%
11. B1  91.1%
12. B12  92.4%
13. B2  96.5%

In order of rising “Percent CD33 Surface Expression, Macrophage % CD33” value:
1. B8  41.8%
2. B7  44.5%
3. B6  45.4%
4. B3  46.3%
5. B5  47.5%
6. B4  50.8%
7. B2  97%
8. B9  98.6%

target: T3, human CD33 Fc fusion protein; assay: RBC adhesion to plate-bound CD33-Fc; antibody 0.5 ug/ml;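 note: Plate-coated CD33-Fc preincubated 1 h with antibody, then red blood cells added for 1 h at room temperature, adherent cells lysed and quantified via peroxidase activity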

In order of falling “Percent RBC Binding to CD33” value:
1. B2  122%
2. B9  102%
3. B12  85.5%
4. B11  72.6%
5. B13  61.4%
6. B1  45.7%
7. B5  36.2%
8. B10  31.6%
9. B3  15.9%
10. B4  13.3%
11. B7  11.5%
12. B8  11.3%
13. B6  10.7%

target: T3, human CD33 Fc fusion protein; assay: RBC adhesion to plate-bound CD33-Fc; antibody 1.0 ug/ml;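 note: red blood cells adhering to plate-coated CD33-Fc after 1 h antibody pretreatment, then 1 h at room temperature, bound cells read as peroxidase activity after lysis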

In order of rising “Percent RBC Binding to CD33” value:
1. B8  8.95%
2. B7  9.33%
3. B4  9.73%
4. B10  10.1%
5. B3  12.6%
6. B6  12.9%
7. B5  18.9%
8. B11  67%
9. B13  77.7%
10. B1  83.5%
11. B12  87.7%
12. B9  98.1%
13. B2  108%

target: T4, human monomeric His tagged CD33 protein (human, UniProt P20138 18-259); assay: ForteBio BLI or MSD-SET, IgG, monomeric antigen;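 note: BLI: antibodies captured on AHQ sensors, 100 nM antigen association 5 min, dissociation 5 min, 1:1 fit. MSD-SET: antigen fixed at 50 pM, antibody titrated, quadratic fit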
T4 construct: also called hCD33-His
T4 sequence (P20138 18-259 limits assumed): as above
Procedure: The binding affinity of each anti-CD33 antibody was determined by measuring their KD by ForteBio or MSD-SET. […] Briefly, ForteBio affinity measurements were performed by loading IgGs on-line onto AHQ sensors. Sensors were equilibrated off-line in assay buffer for 30 min and then monitored on-line for 60 seconds for baseline establishment. Sensors with loaded IgGs were exposed to 100 nM antigen for 5 minutes, then transferred to assay buffer for 5 min for off-rate measurement. Kinetics were analyzed using the 1:1 binding model.
Solution equilibrium titrations (SET) were performed in PBS+0.1% IgG-Free BSA (PBSF) with antigen held constant at 50 pM and incubated with 3-to 5-fold serial dilutions of antibody starting at 10 nM. Antibodies (20 nM in PBS) were coated onto standard bind MSD-ECL plates overnight at 4° C. or at room temperature for 30 min. Plates were then blocked for 30 min with shaking at 700 rpm, followed by three washes with wash buffer (PBSF+0.05% Tween 20). SET samples were applied and incubated on the plates for 150s with shaking at 700 rpm followed by one wash. Antigen captured on a plate was detected with 250 ng/mL sulfotag-labeled streptavidin in PBSF by incubation on the plate for 3 min. The plates were washed three times with wash buffer and then read on the MSD Sector Imager 2400 instrument using 1× Read Buffer T with surfactant. The percent free antigen was plotted as a function of titrated antibody in Prism and fit to a quadratic equation to extract the KD. To improve throughput, liquid handling robots were used throughout MSD-SET experiments, including SET sample preparation.

In order of falling Kd:
1. B10  30.9 nM
2. B8  22.1 nM
3. B12  13.5 nM
4. B4  13.4 nM
5. B1  11.2 nM
6. B13  11.1 nM
7. B3  10.9 nM
8. B6  9.33 nM
9. B9  8.94 nM
10. B5  7.7 nM
11. B7  7.67 nM
12. B11  4.63 nM
13. B2  3.29 nM

target: T2, human CD33; assay: flow cytometry, human primary T cells;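 note: binding of anti-CD33 antibodies at 10 ug/ml to human primary T cells, 1 h on ice, detected with PE-labelled secondary antibody, read as flow cytometry MFI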
Procedure: as §1

In order of falling “T cell MFI” value:
1. B10  561
2. B3  414
3. B11  399
4. B5  330
5. B8  318
6. B13  263
7. B4  242
8. B1  228
9. B6  221
10. B7  216
11. B12  185
12. B2  52.5
13. B9  46

target: T2, human CD33; assay: flow cytometry, human primary dendritic cells;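 note: binding of anti-CD33 antibodies (10 ug/ml, 1 h on ice) to human primary dendritic cells, detected with a PE-labelled secondary antibody, reported as flow cytometry MFI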
Procedure: as §1

In order of rising “DC MFI” value:
1. B1  43
2. B12  43
3. B13  43
4. B11  46
5. B10  526
6. B5  742
7. B2  814
8. B8  923
9. B6  1040
10. B9  1040
11. B3  1300
12. B4  1310
13. B7  1330
